Test results published in patent publication US20210171970A1 (CURATORS OF THE UNIVERSITY OF MISSOURI, published 2021).

Key:
[1] = target: heteromeric acetyl-coenzyme A carboxylase (hetACCase) of Arabidopsis thaliana, in silique or leaf extracts (Arabidopsis thaliana) (UniProt O04983); experiment: inhibition of ACCase activity in 20-day-old A. thaliana leaf extracts with increasing recombinant BADC1, polynomial fit
[2] = target: alpha-carboxyltransferase (α-CT) subunit of hetACCase, AT2G38040, Arabidopsis thaliana (Arabidopsis thaliana) (UniProt Q9LD43); experiment: co-IP from A. thaliana chloroplast lysate with anti-α-CT polyclonal antibody, LC-MS/MS
[3] = target: T1, beta-carboxyltransferase (β-CT) subunit of hetACCase, ATCG00500, Arabidopsis thaliana (Arabidopsis thaliana, UniProt P56765 1-488); experiment: co-IP from A. thaliana chloroplast lysate with anti-BCCP2 polyclonal antibody, LC-MS/MS
T1 construct: Native protein in chloroplast lysate
T1 sequence (looked up): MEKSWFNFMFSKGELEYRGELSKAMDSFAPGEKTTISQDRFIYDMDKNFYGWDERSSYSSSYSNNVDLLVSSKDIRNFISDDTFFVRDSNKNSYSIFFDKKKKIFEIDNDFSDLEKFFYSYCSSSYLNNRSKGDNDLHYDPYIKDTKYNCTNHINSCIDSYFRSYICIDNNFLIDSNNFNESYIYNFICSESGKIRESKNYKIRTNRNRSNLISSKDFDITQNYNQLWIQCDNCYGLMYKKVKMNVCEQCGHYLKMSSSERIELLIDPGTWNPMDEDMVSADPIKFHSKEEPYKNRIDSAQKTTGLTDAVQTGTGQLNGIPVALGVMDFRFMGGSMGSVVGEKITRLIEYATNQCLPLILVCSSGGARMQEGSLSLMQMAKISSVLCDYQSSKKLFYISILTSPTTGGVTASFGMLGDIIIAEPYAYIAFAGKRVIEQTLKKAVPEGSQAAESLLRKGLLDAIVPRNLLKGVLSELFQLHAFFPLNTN
Method: For co-innmunoprecipitation of hetACCase from Arabidopsis seedlings, crude chloroplasts were isolated from approximately 10 g 14-d-old A. thaliana seedlings after 1 h light exposure. Fresh leaves were homogenized in ice-cold grinding buffer (50 mM HEPES-KOH pH 8.0, 330 mM sorbitol, 1.5 mM MnCl₂, 2 mM MgCl₂, 2 mM EDTA, 0.1% (w/v) BSA) using a Waring blender. Homogenate was filtered through two layers of Miracloth and centrifuged at 2,600 g at 4° C. for 20 min. Chloroplasts were lysed for 30 min in ice-cold lysis buffer (50 mM HEPES-KOH pH 8.0, 10% (v/v) glycerol, 0.5% (v/v) Triton X-100). Lysates were homogenized ten times in a Dounce homogenizer on ice and then centrifuged at 30 k g for 20 min at 4° C. Then, 1 mL of the 30 k g supernatant was added to 25 μL Protein A-Sepharose beads (Sigma Aldrich) either uncoated (control) or coated with antibody specific for α-CT, BCCP, BADC1, or BADC2. Co-immunoprecipations (co-IP) were carried out at 4° C. for 3 h with gentle mixing. The heads were washed twice with 1 mL ice-cold lysis buffer and precipitated protein was eluted by adding 30 μL 6×SDS sample buffer (350 mM Tris-HCl, pH 6.8, 350 mM SDS, 30% (v/v) glycerol, 100 mM dithiothreitol, 2.5 mM bromophenol blue) and heating at 65° C. for 10 min. Eluted proteins were resolved on 10% SDS-PAGE gels for western and mass spectrometry analysis. […]

[4] = target: the molecule itself; experiment: intact mass analysis and non-reducing SDS-PAGE of purified recombinant protein (only a monomer band)

Sequence of alpha-carboxyltransferase (α-CT) subunit of hetACCase, AT2G38040, Arabidopsis thaliana (Arabidopsis thaliana) (Q9LD43 55-769): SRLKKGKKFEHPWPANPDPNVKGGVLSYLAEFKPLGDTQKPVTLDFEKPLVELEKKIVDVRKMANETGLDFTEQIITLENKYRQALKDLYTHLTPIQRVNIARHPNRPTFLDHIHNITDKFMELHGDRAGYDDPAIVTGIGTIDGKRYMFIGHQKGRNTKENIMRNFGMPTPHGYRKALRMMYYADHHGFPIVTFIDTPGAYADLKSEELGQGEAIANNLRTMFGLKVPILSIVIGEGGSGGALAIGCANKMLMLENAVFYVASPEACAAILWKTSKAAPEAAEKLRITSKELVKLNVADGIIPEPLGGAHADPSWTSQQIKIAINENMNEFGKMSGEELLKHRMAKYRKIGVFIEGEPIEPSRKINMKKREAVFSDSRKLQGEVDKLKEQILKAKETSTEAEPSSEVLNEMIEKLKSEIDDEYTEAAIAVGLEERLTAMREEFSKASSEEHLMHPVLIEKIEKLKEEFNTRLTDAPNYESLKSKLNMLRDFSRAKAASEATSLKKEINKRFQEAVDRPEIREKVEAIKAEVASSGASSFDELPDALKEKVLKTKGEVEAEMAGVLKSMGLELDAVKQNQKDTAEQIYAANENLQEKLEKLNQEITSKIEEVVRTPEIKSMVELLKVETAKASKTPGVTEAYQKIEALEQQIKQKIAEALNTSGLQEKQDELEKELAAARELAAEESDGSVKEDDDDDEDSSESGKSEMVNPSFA

Ki [1] [µM]	binding result [3]	Binder	replicates of the co-IP in which the protein was present (of seven) [2] [replicates]	binding result [4]
4.3		BADC1 (biotin/lipoyl attachment domain-containing protein, AT3G56130), Arabidopsis thaliana (protein) AKAAKSSTTTISDGSSDASVSDGKKTVRRITFPKEVEALVHEMCDETEVAVLQLKVGDFEMNLKRKIGAATNPIPVADISPTVAPPIPSEPMNKSASSAPSPSQAKPSSEKVSPFKNTSYGKPAKLAALEASGSTNYVLVTSPAVGKFQRSRTVKGKKQSPSCKEGDAIKEGQVIGYLHQLGTELPVTSDVAGEVLKLLSDDGDSVGYGDPLVAVLPSFHDINIQ	1	
	no binding	BCCP2 (biotin carboxyl carrier protein 2 subunit of hetACCase, AT5G15530), Arabidopsis thaliana (other, UniProt Q9LLC1 88-255, looked up, biotinylated (residue not given), Native protein in chloroplast lysate for the co-IPs; Recombinant and two-hybrid constructs lack the TargetP-predicted transit peptide; also called AtBCCP2; NP_568316.1) EFMAKVSGLLKLVDSKDIVELELKQLDCEIVIRKKEALQQAVPPAPVYHSMPPVMADFSMPPAQPVALPPSPTPTSTPATAKPTSAPSSSHPPLKSPMAGTFYRSPGPGEPPFVKVGDKVQKGQIVCIIEAMKLMNEIEAEKSGTIMELLAEDGKPVSVDTPLFVIAP		
		BADC2 (Single hybrid motif protein, AT1G52670), Arabidopsis thaliana (other, Native protein in chloroplast lysate for the co-IPs; Recombinant and two-hybrid constructs lack the TargetP-predicted transit peptide; His-tagged or untagged in co-expression; also called AtBADC2; NP_564612.1) TTLRSVKAIQLSTVPPAETEAIADVKDSDETKSTVVNTHLMPKSSEVEALISEITDSSSIAEFELKLGGFRLYVARKLTDESSPPPQQIQPVVAASATPEGVHTNGSATSSSLAITKTSSSSADRPQTLANKAADQGLVILQSPTVGYFRRSKTIKGKRTPTICKEKDIVKEGQVLCYIEQLGGQIPVESDVSGEIVKILREDGEPVGYNDALITVLPSFPGIKKLQ	2	no binding
